Test results as given in patent publication US6544767B1, “Cathespin O2 protease” (Axys Pharmaceuticals, Inc., priority 1994, dated 2003).
Read-outs that look alike come from different tables or passages of the source.

B1: cathepsin O2: recombinant human cysteine protease of the papain family, mature enzyme expressed in Sf9 cells (protein)
chain: APDSVDYRKKGYVTPVKNQGQCGSCWAFSSVGALEGQLKKKTGKLLNLSPQNLVDCVSENDGCGGGYMTNAFQYVQKNRGIDSEDAYPYVGQEESCMYNPTGKAAKCRGYREIPEGNEKALKRAVARVGPVSVAIDASLTSFQFYSKGVYYDESCNSDNLNHAVLAVGYGIQKGNKHWIIKNSWGENWGNKGYILMARNKNNACGIANLASFPKM
B2: cathepsin S: recombinant human cathepsin S expressed using the baculovirus expression system (protein)
chain: LPDSVDWREKGCVTEVKYQGSCGACWAFSAVGALEAQLKLKTGKLVSLSAQNLVDCSTEKYGNKGCNGGFMTTAFQYIIDNKGIDSDASYPYKAMDQKCQYDSKYRAATCSKYTELPYGREVDLKEAVANKGPVSVGVDARHPSFFLYRSGVYYEPSCTQNVNHGVLVVGYGDLNGKEYWLVKNSWGHNFGEEGYIRMARNKGNHCGIASFPSYPEI
B3: chicken cystatin: cysteine protease inhibitor (protein)
chain: SEDRSRLLGAPVPVDENDEGLQRALQFAMAEYNRASNDKYSSRVVRVISAKRQLVSGIKYILQVEIGRTTCPKSSGDLQSCEFHDEPEMAKYTTCTFVVYSIPWLNQIKLLESKCQ
B4: papain: cysteine protease, literature comparison (protein, UniProt P00784 134-345, looked up)
Papain: IPEYVDWRQKGAVTPVKNQGSCGSCWAFSAVVTIEGIIKIRTGNLNEYSEQELLDCDRRSYGCNGGYPWSALQLVAQYGIHYRNTYPYEGVQRYCRSREKGPYAAKTDGVRQVQPYNEGALLYSIANQPVSVVLEAAGKDFQLYRGGIFVGPCGNKVDHAVAAVGYGPNYILIKNSWGTGWGENGYIRIKRGTGNSYGVCGLYTSSFYPVKN
B5: trypsin: bovine trypsin (Sigma) (protein, UniProt P00760 24-246, looked up)
Serine protease 1: IVGGYTCGANTVPYQVSLNSGYHFCGGSLINSQWVVSAAHCYKSGIQVRLGEDNINVVEGNEQFISASKSIVHPSYNSNTLNNDIMLIKLKSAASLNSRVASISLPTSCASAGTQCLISGWGNTKSSGTSYPDVLKCLKAPILSDSSCKSAYPGQITSNMFCAGYLEGGKDSCQGDSGGPVVCSGKLQGIVSWGSGCAQKNKPGVYTKVCNYVSWIKQTIASN

Key:
[1] = tested on: Soluble calf skin Type I collagen; test: Collagenase activity, SDS-PAGE; assay type: biochemical
Description: (§1) FIGS. 9A and 9B depict SDS PAGE of type I collagen (soluble calf skin collagen) after digestion with recombinant human cathepsin O2 and L and bovine trypsin. FIG. 9A: Collagenase activity: Digestion of soluble calf skin collagen at 28° C. and at pH 4.0, 5.0, 5.5, 6.0, 6.5, 7.0 by human cathepsins O2, S and L (each 50 nM) for 12 hours. The reaction was stopped by addition of 10 μM E-64. Untreated soluble collagen was used as standard (S). FIG. 9B: Gelatinase activity: Digestion of denatured soluble calf skin collagen (10 min heated at 70° C.) at 28° C. and at pH 4.0, 5.0, 5.5, 6.0, 6.5, 7.0 by human cathepsin O2 (0.1 nM), cathepsin L (0.2 nM) and human cathepsin S (1 nM). Molecular mass standards are indicated in the left lane.
(§2) Soluble calf skin Type I collagen was diluted to 0.4 mg/ml into 100 mM-sodium acetate buffer, pH 4.5, 5.0, 5.5, in 100 mM-potassium phosphate buffer, pH 6.0, 6.5 and 100 mM-Tris/HCl, pH 7.0 containing 2 mM-dithiotreitol/2 mM-EDTA. Human cathepsins O2, S and L and bovine trypsin (Sigma) were incubated at concentrations of 100 nM enzyme concentration for 10 hours at 28° C. To measure the gelatinase activity of cathepsins O2 and S, Type I collagen was heated for 10 min at 70° C. prior to incubation with the proteases. In the presence of 1 nM proteases the reaction mix was incubated for 30 min at 28° C. The samples were subjected to SDS polyacrylamide electrophoresis using 4-20% Tris-glycine gels (Novex, San Diego, Calif.).

pH activity profile = assay type: biochemical; conditions: for pH optimum: calculated from (pK1 + pK2)/2
Description: Initial rates of substrate hydrolysis were monitored as described above. The pH activity profile of human cathepsin O2 was obtained at 1 μM substrate (Z-FR-MCA) concentration ([S]<<Km where the initial rate vo is directly proportional to the kcat/Km value). The following buffers were used for the pH activity profile: 100 mM sodium citrate (pH 2.8-5.6) and 100 mM sodium phosphate (pH 5.8-8.0). All buffers contained 1 mM EDTA and 0.4 M NaCl to minimize the variation in ionic strength. A three protonation model (Khouri et al., Biochem. 30:8929-8936 (1991)) was used for least square regression analysis of the pH activity data. The data were fitted to the following equation.
(kcat/Km)obs=(kcat/Km)/([H^+]/K1+1+K2/[H^+])

pH stability at 37° C. = assay type: physicochemical
Description: The residual activity was measured in time intervals using the above described fluorimetric substrate assay. The pH stability of cathepsins O2, S and L was studied at three different pH values. Recombinant human cathepsins O2, S and L were incubated at 37° C. in 100 mM sodium acetate buffer, pH 5.5, in 100 mM potassium phosphate buffer, pH 6.5 and in 100 mM Tris/HCl, pH 7.5 containing 5 mM dithiothreitol and 2.5 mM EDTA. Incubating for 0.5, 1, 2 and 4 hours, the activity remaining was determined using 5 μM Z-FR-MCA for cathepsin O2 (100 mM potassium phosphate buffer, pH 6.5) and cathepsin L (100 mM sodium acetate buffer, pH 5.5) and 5 μM Z-VVR-MCA for cathepsin S (100 mM potassium phosphate buffer, pH 6.5).

[2] = tested on: denatured soluble calf skin collagen; test: Gelatinase activity, SDS-PAGE; assay type: biochemical
Description: as §1, §2

[^3H] elastin = Elastin degradation assay; assay type: biochemical
Description: Elastin (2 mg) was incubated in I ml buffer containing 2.5 mM dithiothreitol, 2.5 mM EDTA and 0.05% Triton X-100 for the cathepsin O2, S and L assays. Aliquots were withdrawn after 10, 20, 30, 50, 90, 120 and 180 min, centrifuged for 1 min at 14,000×g and counted in a 24-well plate containing scintillation fluid with Liquid Scintillation counter (1450 Microbeta Plus, Wallac/Pharmacia). Concentrations of human cathepsins O2, S and L and bovine elastase in the elastin degradation assay were 65 nM, 28 nM, 80 nM and 80 nM, respectively. To determine the pH effect on protease activity the digests were carried out at pH 4.5 and 5.5 (100 mM sodium acetate, 2.5 mM each dithiothreitol and EDTA, 0.05% Triton X-100), and at pH 7.0 (100 mM Tris/HCl, 2.5 mM each of dithiothreitol and EDTA, 0.05% Triton X-100). Pancreatic bovine elastase (Boehringer, Mannheim, Ind.) was assayed under the same conditions except that neither dithiothreitol nor EDTA was added to the incubation mixture.

[3] = from literature; cited from earlier work
[4] = molecular target: T1, recombinant human cathepsin O2 (Homo sapiens, UniProt P43235); test: Inhibitor profile, fluorimetric enzyme assay with Z-FR-MCA; assay type: biochemical
T1 construct: the mature protein spans from position 115 to 329 (215 amino acids); made in house; host or cells: Sf9 insect cells (baculovirus, pVL1392)
T1 sequence (P43235 115-329): B1 chain
Description: Human cathepsin O2 was assayed with a fluorogenic substrate Z-FR-MCA (MCA, methyl coumarylamide) in 100 mM sodium acetate buffer, containing 2.5 mM dithioerythreitol and 2.5 mM EDTA. Initial rates of hydrolysis of the MCA-substrate are monitored in 1-cm cuvettes at 25° C. at an excitation wavelength at 380 nm and an emission wavelength at 450 nm. The concentration of Z-FR-MCA is 5 μM under standard conditions.
The inhibition of cathepsin O2 was assayed at a constant substrate (5 μM Z-FR-MCA) and enzyme concentration (1 nM) in the presence of different inhibitor concentrations in the substrate assay buffer. Cathepsin O2 was preincubated with the inhibitors for 10 min and the reaction was started with substrate. The residual activity was monitored and percent inhibition was calculated from the uninhibited rate.
The efficacy of protease class specific inhibitors to inhibit cathepsin O2 was determined by adding the inhibitor to the purified enzyme in a fluorimetric enzyme assay (described above).

| Molecule | pH optimum (pH activity profile) | Residual activity (%) (pH stability at 37° C.; pH 5.5, 37° C., 0.5 hr) | Residual activity (%) (pH stability at 37° C.; pH 5.5, 37° C., 1 hr) | Residual activity (%) (pH stability at 37° C.; pH 5.5, 37° C., 2 hr) | Residual activity (%) (pH stability at 37° C.; pH 5.5, 37° C., 4 hr) | Residual activity (%) (pH stability at 37° C.; pH 6.5, 37° C., 0.5 hr) | Residual activity (%) (pH stability at 37° C.; pH 6.5, 37° C., 2 hr) | Residual activity (%) (pH stability at 37° C.; pH 6.5, 37° C., 4 hr) | Residual activity (%) (pH stability at 37° C.; pH 7.5, 37° C., 0.5 hr) | Residual activity (%) (pH stability at 37° C.; pH 7.5, 37° C., 1 hr) | Residual activity (%) (pH stability at 37° C.; pH 7.5, 37° C., 2 hr) | Residual activity (%) (pH stability at 37° C.; pH 7.5, 37° C., 4 hr) | gelatinase activity [2] | elastinolytic activity ([^3H] elastin; pH 4.5) [mg/min/μmol enzyme] | elastinolytic activity ([^3H] elastin; pH 5.5) [mg/min/μmol enzyme] | elastinolytic activity ([^3H] elastin; pH 7.0) [mg/min/μmol enzyme] | collagenolytic activity [1] | pK1 of pH activity profile [3] | pK2 of pH activity profile [3] | width of the pH profile [3] | other results |
| --- | --- | --- | --- | --- | --- | --- | --- | --- | --- | --- | --- | --- | --- | --- | --- | --- | --- | --- | --- | --- | --- |
| B1 | 6.1 | 91 | 88 | 70 | 52 | 85 | 22 | 15 | 11 | 0 | 0 | 0 | powerful gelatinase activity | 245 | 286 | 170 | – | – | – | – | degradation of Type I collagen ([1]; between pH 5.0 and 6.0 at 28° C.): extensively degraded; degradation of Type I collagen ([1]; pH 4.5 and pH 7.0, 28° C.): much less pronounced; pK1′ of pH activity profile (pH activity profile): 3.43 ± 0.05; width of the pH profile (pH activity profile): 4.15; pK1 of pH activity profile (pH activity profile; listed as Human cathepsin O2): 4.0; pK2 of pH activity profile (pH activity profile; listed as Human cathepsin O2): 8.13; pK1 of pH activity profile (pH activity profile; listed as human cathepsin O2): 4.00 ± 0.02; pK2 of pH activity profile (pH activity profile; listed as human cathepsin O2): 8.13 ± 0.01; time to total degradation of denatured collagen ([2]; 0.1 nM enzyme, pH range of 5.0 to 7.0): ≤ 30 min; pH of maximal elastinolytic activity ([^3H] elastin): 5.5; elastinolytic activity relative to pancreatic elastase ([^3H] elastin; neutral pH): 2.4 times; elastinolytic activity relative to cathepsin L ([^3H] elastin; pH 5.5): ~9 times |
| B2 | 6.1 | 100 | 95 | 92 | 83 | 100 | 94 | 71 | 91 | 72 | 61 | 60 | significant weaker activity than the cathepsins O2 and L | 146 | 102 | 55 | very weak collagenolytic activity | 4.49 ± 0.03 | 7.82 ± 0.03 | 3.35 | Residual activity (%) (pH stability at 37° C.; pH 6.5, 37° C., 1 hr): 100% |
| B3 | – | – | – | – | – | – | – | – | – | – | – | – | – | – | – | – | – | – | – | – | % inhibition ([4]; [inhibitor] 0.1 μM): 100%; inhibition of enzyme activity ([4]; concentrations above 0.1 μM): completely inhibit |
| B4 | 6.5 | – | – | – | – | – | – | – | – | – | – | – | – | – | – | – | – | 4.54 ± 0.29 | 8.45 ± 0.02 | 3.91 | pK1′ of pH activity profile [3]: 3.58 ± 0.29 |
| B5 | – | – | – | – | – | – | – | – | – | – | – | – | – | – | – | – | No degradation | – | – | – | – |
